From patent publication US20110177071A1 (PERSEID THERAPEUTICS, published 2011)
Substitutions are numbered along the chain they refer to.

T1: human CD86-murine Ig fusion protein (human)
T1 construct: Bought (Ancell #509-820); also called hCD86-mIg
T1 chain: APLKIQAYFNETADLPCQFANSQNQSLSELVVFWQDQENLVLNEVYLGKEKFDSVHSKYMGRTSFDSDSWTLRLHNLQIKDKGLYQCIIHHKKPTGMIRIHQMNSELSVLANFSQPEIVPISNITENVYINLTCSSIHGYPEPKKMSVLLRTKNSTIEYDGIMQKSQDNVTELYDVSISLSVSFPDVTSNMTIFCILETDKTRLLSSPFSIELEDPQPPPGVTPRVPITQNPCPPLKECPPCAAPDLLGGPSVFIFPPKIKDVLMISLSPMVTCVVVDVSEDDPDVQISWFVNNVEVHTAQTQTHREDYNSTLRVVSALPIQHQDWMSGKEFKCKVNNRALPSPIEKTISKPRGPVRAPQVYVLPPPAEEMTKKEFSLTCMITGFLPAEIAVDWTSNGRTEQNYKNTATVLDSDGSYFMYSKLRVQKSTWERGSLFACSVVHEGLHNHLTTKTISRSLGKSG

T2: full-length human CD86 on HEK293 cells (human, UniProt P42081 24-329)
T2 sequence: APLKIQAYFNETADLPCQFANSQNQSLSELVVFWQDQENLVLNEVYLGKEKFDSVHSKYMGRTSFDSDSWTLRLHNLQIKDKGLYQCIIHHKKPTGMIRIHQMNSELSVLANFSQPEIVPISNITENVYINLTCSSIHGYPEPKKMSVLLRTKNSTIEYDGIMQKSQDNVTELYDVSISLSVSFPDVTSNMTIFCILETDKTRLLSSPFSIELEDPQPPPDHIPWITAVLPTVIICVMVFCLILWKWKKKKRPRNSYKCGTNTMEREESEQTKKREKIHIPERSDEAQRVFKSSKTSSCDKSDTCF

T3: monomeric hCD86 ECD (papain-digested hCD86-mIg) (human, UniProt P42081 24-243)
T3 construct: also called monomeric hCD86-mIg ligand; monomeric CD86 ECD
T3 chain: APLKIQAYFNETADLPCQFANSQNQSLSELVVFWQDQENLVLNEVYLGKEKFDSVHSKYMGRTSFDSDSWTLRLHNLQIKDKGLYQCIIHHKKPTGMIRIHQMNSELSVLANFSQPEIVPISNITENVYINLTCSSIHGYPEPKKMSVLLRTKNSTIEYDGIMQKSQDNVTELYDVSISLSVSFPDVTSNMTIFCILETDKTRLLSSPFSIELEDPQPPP

T4: human CD80-murine Ig fusion protein (human)
T4 construct: Bought (Ancell #510-820); also called hCD80-mIg; human CD80-murine IgG
T4 chain: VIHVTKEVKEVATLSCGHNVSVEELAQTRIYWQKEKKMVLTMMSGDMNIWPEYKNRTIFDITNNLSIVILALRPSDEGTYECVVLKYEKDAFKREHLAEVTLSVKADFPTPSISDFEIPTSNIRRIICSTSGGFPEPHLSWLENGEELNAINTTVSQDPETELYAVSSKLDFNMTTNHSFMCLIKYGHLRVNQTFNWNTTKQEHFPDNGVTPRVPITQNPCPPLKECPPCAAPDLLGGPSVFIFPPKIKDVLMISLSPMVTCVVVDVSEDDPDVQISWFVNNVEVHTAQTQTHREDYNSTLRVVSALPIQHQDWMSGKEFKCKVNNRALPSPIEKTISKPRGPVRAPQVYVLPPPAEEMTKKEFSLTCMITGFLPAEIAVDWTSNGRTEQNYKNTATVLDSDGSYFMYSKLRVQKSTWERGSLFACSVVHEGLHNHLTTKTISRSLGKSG

B1: D3-14-IgG2 (Fc fusion)
chain: MHVAQPAVVLASSRGIASFVCEYESPGKANEIRVTVLRQADSQVTEVCAMTYMKGDELTFLDDPSCTGTFSGNQVNLTIQGLRAADTGLYICKVELMYPPPYYLGIGNGTQIYVIDPEPCPDSDERKCCVECPPCPAPPVAGPSVFLFPPKPKDTLMISRTPEVTCVVVDVSHEDPEVQFNWYVDGVEVHNAKTKPREEQFNSTFRVVSVLTVVHQDWLNGKEYKCKVSNKGLPAPIEKTISKTKGQPREPQVYTLPPSREEMTKNQVSLTCLVKGFYPSDIAVEWESNGQPENNYKTTPPMLDSDGSFFLYSKLTVDKSRWQQGNVFSCSVMHEALHNHYTQKSLSLSPG
B2: D3-17-IgG2 (Fc fusion)
chain: B1 chain with A85M
B3: D3-4-IgG2 (Fc fusion)
chain: B1 chain with I106F
notes: also called D3-04-IgG2
B4: D3-11-IgG2 (Fc fusion)
chain: B1 chain with D41G, A85M, I106F
B5: D3-12-IgG2 (Fc fusion)
chain: B1 chain with D41G
B6: D3-34-IgG2 (Fc fusion)
chain: B1 chain with E24A, I32V, D56N, A85M
B7: D3-39-IgG2 (Fc fusion)
chain: B1 chain with I32V, D56N, S65I, A85M
B8: D3-50-IgG2 (Fc fusion)
chain: B1 chain with E24A, I32V, S65I, A85M
B9: D3-52-IgG2 (Fc fusion)
chain: B1 chain with E24A, D56N, S65I, A85M
B10: D3-54-IgG2 (Fc fusion)
chain: B1 chain with E24A, I32V, G55E, D56N, S65I, A85M
B11: D3-56-IgG2 (Fc fusion)
chain: B1 chain with E24A, I32V, G55E, D56N, A85M
B12: D3-62-IgG2 (Fc fusion)
chain: B1 chain with E24A, G55E, A85M
B13: D3-65-IgG2 (Fc fusion)
chain: B1 chain with E24A, I32V, D56N, A85M, L104E
B14: D3-69-IgG2 (Fc fusion)
chain: B1 chain with A85M, L104E
B15: D3-70-IgG2 (Fc fusion)
chain: B1 chain with I32V, D56N, A85M, L104E
B16: D3-71-IgG2 (Fc fusion)
chain: B1 chain with E24A, A85M, L104E
B17: D3-72-IgG2 (Fc fusion)
chain: B1 chain with D56N, A85M, L104E
B18: D3-73-IgG2 (Fc fusion)
chain: B1 chain with I32V, D56N, S65I, A85M, L104E
B19: D3-75-IgG2 (Fc fusion)
chain: B1 chain with I32V, G55E, D56N, A85M

Columns and labels:
[1] = target: T1, human CD86-murine Ig fusion protein; assay: SPR Biacore, hCD86-mIg captured
Procedure: (§1) All Biacore™ analyses were performed on a Biacore™ 2000 system (GE Healthcare) at room temperature (RT, 25° C.). HBS-EP buffer (10 mM HEPES (pH 7.4), 150 mM NaCl, 3 mM EDTA, 0.005% surfactant P20) was used as the flow buffer for all experiments.
(§2) Rabbit anti-mouse IgG antibody (GE Healthcare, #BR-1005-14) was immobilized on CM5 sensor chips (GE Healthcare, #BR-1000-14) according to the manufacturer's protocol. Antibody was diluted to 30 μg/ml in immobilization buffer (10 mM sodium acetate, pH 5.0 (BR-1003-51)). At a flow rate of 5 μl/minute, sensor chip CM5 was activated with a 35 μl injection of a mixture of 1-Ethyl-3-[3-dimethylaminopropyl]carbodiimide hydrochloride (EDC) and N-hydroxysuccinimide (NHS) (made by mixing equal volumes of 11.5 mg/ml EDC and 75 mg/ml NHS) (GE Healthcare, #BR-1000-50), followed by a 35 μl injection of undiluted antibody. Un-reacted sites were quenched with 35 μl of 1M ethanolamine-HCL, pH 8.5 (GE Healthcare, #BR-1000-50). […] CTLA-4 ligands human CD80-murine Ig (hCD80-mIg) (Ancell, #510-820) or human CD86-murine Ig (hCD86-mIg) (Ancell, #509-820) were bound to antibody-coated sensor chips by injection of 10 μl or 16 μl, respectively, ligand solution (2 μg/ml protein in HBS-EP buffer [10 mM HEPES pH 7.4, 150 mM NaCl, 3 mM EDTA, 0.005% (v/v) surfactant P-20, GE Healthcare, #BR-1001-88]) at a flow rate of 10 μl/min.

[2] = target: T2, full-length human CD86 on HEK293 cells; assay: cell-based or functional assay
[3] = target: T3, monomeric hCD86 ECD (papain-digested …); assay: SPR Biacore, fusion protein captured, monomeric hCD86 ECD in flow
Procedure: Regeneration between cycles was performed by 3 min incubation with 10 mM glycine buffer (pH 1.7) at 30 μl/min.
For kinetic analysis, data from monomeric binding assays were selected as described above except that association data selection began and ended 5 s from the injection start and stop times, and dissociation data selection started 5 s after the injection stop time, and typically included 1-60 s of the dissociation period. Such data were also analyzed for steady state equilibrium affinities using the BIAevaluation software. Steady state binding levels for each concentration (Responseeq (“Req”) values) were averaged over 5-20 s range near the end of the sample injection using the BIAevaluation “General fit: average” function.

[4] = target: T4, human CD80-murine Ig fusion protein; assay: SPR Biacore, hCD80-mIg captured
Procedure: as §1, §2

Binder	Binding Avidity (Relative to Orencia) [1] [fold]	Kd [1] [nM]	Mean IC50 (nM), CD4+ T cell proliferation [2] [nM]	Binding Affinity (Relative to LEA29Y-Ig) [3] [fold]	Kd [3] [nM]	Kd [4] [nM]	Binding Avidity (Relative to Orencia) [4] [fold]
B1	> 40	< 0.131	0.04	> 5	< 336	0.439 to 1.75	–
B2	> 40	< 0.131	0.03	> 5	< 336	0.439 to 1.75	–
B3	> 40	< 0.131	0.03	> 5	< 336	0.439 to 1.75	–
B4	> 40	< 0.131	0.03	> 5	< 336	0.439 to 1.75	–
B5	> 40	< 0.131	0.04	> 5	< 336	< 0.439	> 2
B6	–	0.131 to 0.262	0.05	–	–	0.439 to 1.75	–
B7	–	0.262 to 0.523	0.05	–	–	0.439 to 1.75	–
B8	–	0.131 to 0.262	0.06	–	–	0.439 to 1.75	–
B9	–	0.262 to 0.523	0.07	–	–	0.439 to 1.75	–
B10	> 40	< 0.131	0.04	–	–	0.439 to 1.75	–
B11	> 40	< 0.131	0.04	–	–	0.439 to 1.75	–
B12	> 40	< 0.131	0.04	–	–	< 0.439	> 2
B13	> 40	< 0.131	0.06	–	–	< 0.439	> 2
B14	> 40	< 0.131	0.03	–	–	< 0.439	> 2
B15	> 40	< 0.131	0.05	–	–	< 0.439	> 2
B16	> 40	< 0.131	0.04	–	–	< 0.439	> 2
B17	> 40	< 0.131	0.03	–	–	< 0.439	> 2
B18	> 40	< 0.131	0.06	–	–	< 0.439	> 2
B19	> 40	< 0.131	0.03	–	–	< 0.439	> 2
